Reference: patent publication US20240294593A1 (Genentech, published 2024)
Residue numbers refer to the chain shown, from its start. In names and notes the source's numbering stands.

B1: H1.79_L1 (antibody, V domains shown)
VH: EVQLVESGGGLVQPGGSLRLSCAASGFTFSSFGMHWVRQAPGKGLEWVSYISSGSYIIYYADSVKGRFTISRDNAKNSLYLQMNSLRAEDTAVYYCARGGRLVWSPDYWGQGTLVTVSS
VL: DIVMTQSPDSLAVSLGERATINCKSSQSLLNSGNQKNYLTWYQQKPGQPPKLLIYWASTRESGVPDRFTGSGSGTDFTLTISSLQAEDVAVYYCQNDYSYPFTFGSGTKLEIKR
notes: also called VH-S60Y; Kabat 55
B2: H1.90_L1 (antibody, V domains shown)
VH: B1 VH with Y56S, I58L
VL: B1 VL
notes: also called VH-I62L; Kabat 57
B3: H1.92_L1 (antibody, V domains shown)
VH: B1 VH with Y56S, I58T
VL: B1 VL
notes: also called VH-I62T; Kabat 57
B4: H1.85_L1 (antibody, V domains shown)
VH: B1 VH with Y56S, I57A
VL: B1 VL
notes: also called VH-I61A; Kabat 56
B5: H1.91_L1 (antibody, V domains shown)
VH: B1 VH with Y56S, I58F
VL: B1 VL
notes: also called VH-I62F; Kabat 57
B6: H1.96_L1 (antibody, V domains shown)
VH: B1 VH with Y56S, I58E
VL: B1 VL
notes: also called VH-I62E; Kabat 57
B7: H1.89_L1 (antibody, V domains shown)
VH: B1 VH with Y56S, I58V
VL: B1 VL
notes: also called VH-I62V; Kabat 57
B8: H1.93_L1 (antibody, V domains shown)
VH: B1 VH with Y56S, I58W
VL: B1 VL
notes: also called VH-I62W; Kabat 57
B9: H1.95_L1 (antibody, V domains shown)
VH: B1 VH with Y56S, I58N
VL: B1 VL
notes: also called VH-I62N; Kabat 57
B10: H1.99_L1 (antibody, V domains shown)
VH: B1 VH with Y56S, Y59H
VL: B1 VL
notes: also called VH-Y63H; Kabat 58
B11: H1.94_L1 (antibody, V domains shown)
VH: B1 VH with Y56S, I58A
VL: B1 VL
notes: also called VH-I62A; Kabat 57
B12: H1.80_L1 (antibody, V domains shown)
VH: B1 VH with Y56S, I57V
VL: B1 VL
notes: also called VH-I61V; Kabat 56
B13: H1.97_L1 (antibody, V domains shown)
VH: B1 VH with Y56S, I58K
VL: B1 VL
notes: also called VH-I62K; Kabat 57
B14: H1_L1.11 (antibody, V domains shown)
VH: B1 VH with Y56S
VL: B1 VL with S32Q
notes: also called VL-S32Q; Kabat 27e
B15: H1.164_L1 (antibody, V domains shown)
VH: B1 VH with Y56S, S105V
VL: B1 VL
notes: also called VH-S113V; Kabat 100a
B16: H1_L1.2 (antibody, V domains shown)
VH: B1 VH with Y56S
VL: B1 VL with N31E
notes: also called VL-N31E; Kabat 27d
B17: H1_L1.9 (antibody, V domains shown)
VH: B1 VH with Y56S
VL: B1 VL with S32T
notes: also called VL-S32T; Kabat 27e
B18: H1_L1.5 (antibody, V domains shown)
VH: B1 VH with Y56S
VL: B1 VL with N31L
notes: also called VL-N31L; Kabat 27d
B19: H1_L1.7 (antibody, V domains shown)
VH: B1 VH with Y56S
VL: B1 VL with N31G
notes: also called VL-N31G; Kabat 27d
B20: H1_L1.12 (antibody, V domains shown)
VH: B1 VH with Y56S
VL: B1 VL with S32V
notes: also called VL-S32V; Kabat 27e
B21: H1_L1.10 (antibody, V domains shown)
VH: B1 VH with Y56S
VL: B1 VL with S32A
notes: also called VL-S32A; Kabat 27e
B22: H1_L1.6 (antibody, V domains shown)
VH: B1 VH with Y56S
VL: B1 VL with N31T
notes: also called VL-N31T; Kabat 27d
B23: H1_L1.14 (antibody, V domains shown)
VH: B1 VH with Y56S
VL: B1 VL with S32K
notes: also called VL-S32K; Kabat 27e
B24: H1_L1.8 (antibody, V domains shown)
VH: B1 VH with Y56S
VL: B1 VL with N31Y
notes: also called VL-N31Y; Kabat 27d
B25: H1.163_L1 (antibody, V domains shown)
VH: B1 VH with Y56S, S105G
VL: B1 VL
notes: also called VH-S113G; Kabat 100a
B26: H1_L1.13 (antibody, V domains shown)
VH: B1 VH with Y56S
VL: B1 VL with S32H
notes: also called VL-S32H; Kabat 27e
B27: H1.166_L1 (antibody, V domains shown)
VH: B1 VH with Y56S, S105D
VL: B1 VL
notes: also called VH-S113D; Kabat 100a

target: T1, human PD-1-His (human, UniProt Q15116 25-167, limits assumed); assay: Octet
T1 construct: Antigen of the Octet assays; not shown: His tag
T1 sequence (Q15116 25-167 limits assumed): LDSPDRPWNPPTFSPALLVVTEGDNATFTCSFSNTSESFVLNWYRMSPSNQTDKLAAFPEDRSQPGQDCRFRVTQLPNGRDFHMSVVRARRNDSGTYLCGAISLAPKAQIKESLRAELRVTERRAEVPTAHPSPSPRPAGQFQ

Kd [µM] | koff [s⁻¹] | kon [M⁻¹ s⁻¹] | Binder
0.0434 | 0.00686 | 158000 | B1
0.0515 | 0.00727 | 141000 | B2
0.0478 | 0.00851 | 178000 | B3
0.132 | 0.0618 | 467000 | B4
0.061 | 0.00917 | 150000 | B5
0.0416 | 0.00751 | 181000 | B6
0.0432 | 0.00669 | 155000 | B7
0.031 | 0.00528 | 170000 | B8
0.0734 | 0.0119 | 162000 | B9
0.261 | 0.0651 | 250000 | B10
0.0806 | 0.0161 | 200000 | B11
0.207 | 0.0466 | 226000 | B12
0.114 | 0.0175 | 154000 | B13

target: T1, human PD-1-His; assay: Octet; remark: another data set of the same source

Kd [µM] | koff [s⁻¹] | kon [M⁻¹ s⁻¹] | Binder
0.103 | 0.00997 | 96500 | B14
0.28 | 0.0166 | 59400 | B15
0.152 | 0.0228 | 150000 | B16
0.0467 | 0.005 | 107000 | B17
0.0329 | 0.00569 | 173000 | B18
0.0846 | 0.00875 | 103000 | B19
0.111 | 0.0115 | 104000 | B20
0.0829 | 0.00755 | 91000 | B21
0.0646 | 0.00777 | 120000 | B22
0.17 | 0.0141 | 83200 | B23
0.307 | 0.0247 | 80600 | B24
0.092 | 0.0113 | 123000 | B25
0.103 | 0.0106 | 102000 | B26
0.189 | 0.0457 | 242000 | B27
